Holding throughout (assay): cell-based or functional assay
Assay [1] concerns the target Kv1.3 (human) (UniProt P22001).
In assay [2] the target is CXCR1 (UniProt P25024).
Assay [3] concerns the target CXCR1 (UniProt P25024). The source holds these as a separate data set.

Where “and” joins values, the source holds several entries; their conditions need not be identical. Identical values can stand only once. Like-named read-outs stand apart in the source and are kept apart here.

Chain of interleukin 8 (soluble) (P10145 28-99 limits assumed): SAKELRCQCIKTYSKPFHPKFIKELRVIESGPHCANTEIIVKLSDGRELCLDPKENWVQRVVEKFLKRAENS
Chain of Kv1.3 (human) (P22001 whole entry): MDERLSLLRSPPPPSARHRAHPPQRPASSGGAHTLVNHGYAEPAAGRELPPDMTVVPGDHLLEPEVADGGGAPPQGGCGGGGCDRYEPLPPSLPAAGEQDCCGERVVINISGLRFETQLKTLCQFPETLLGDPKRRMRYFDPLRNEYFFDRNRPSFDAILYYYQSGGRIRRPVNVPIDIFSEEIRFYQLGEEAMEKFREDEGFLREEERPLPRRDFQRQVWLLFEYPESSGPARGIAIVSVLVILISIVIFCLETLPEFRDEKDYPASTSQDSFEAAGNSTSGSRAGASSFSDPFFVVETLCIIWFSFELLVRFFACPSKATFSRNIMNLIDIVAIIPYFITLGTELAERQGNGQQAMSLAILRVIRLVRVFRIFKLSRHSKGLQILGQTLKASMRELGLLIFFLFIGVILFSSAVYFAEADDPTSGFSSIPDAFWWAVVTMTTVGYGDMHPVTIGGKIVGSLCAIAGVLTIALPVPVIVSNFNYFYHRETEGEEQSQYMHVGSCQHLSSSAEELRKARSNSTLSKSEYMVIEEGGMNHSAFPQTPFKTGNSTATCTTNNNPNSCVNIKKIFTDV
Chain of CXCR1 (P25024 whole entry): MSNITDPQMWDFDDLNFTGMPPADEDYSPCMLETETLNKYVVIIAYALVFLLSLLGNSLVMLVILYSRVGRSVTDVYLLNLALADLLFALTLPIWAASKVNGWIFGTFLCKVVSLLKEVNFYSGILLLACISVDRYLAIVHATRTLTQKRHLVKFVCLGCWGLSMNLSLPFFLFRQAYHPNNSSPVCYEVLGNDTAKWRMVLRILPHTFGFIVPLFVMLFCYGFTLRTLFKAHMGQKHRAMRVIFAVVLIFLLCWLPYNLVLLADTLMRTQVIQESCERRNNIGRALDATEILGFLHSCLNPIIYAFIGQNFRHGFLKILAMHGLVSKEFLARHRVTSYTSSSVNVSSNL

For BLV1H12 (antibody), in assay [1], the IL-2 ELISA (A450); Donor 1; 150 nM IgG was 0.445 A450, the IL-2 ELISA (A450); Donor 2; 150 nM IgG came out at 0.355 A450, the TNF-α ELISA (A450); Donor 1; 150 nM IgG stood at 0.11 A450 and the TNF-α ELISA (A450); Donor 2; 150 nM IgG is 0.058 A450.
Regarding “interleukin 8 (soluble) (from UniProt P10145 28-99) (ligand)”, in assay [2], the average RLU at 0.01 nM was determined as 440 RLU, the average RLU at 0.08 nM was found to be 504 RLU, the average RLU at 0.23 nM is 940 RLU and the average RLU at 0.69 nM amounted to 1940 RLU. In assay [2], this substance displayed an average RLU at 2.06 nM of 4110 RLU, an average RLU at 6.17 nM of 5870 RLU, an average RLU at 18.52 nM of 7300 RLU and an average RLU at 31.5 nM of 55500 RLU. In assay [2], this substance returned an average RLU at 55.56 nM of 7360 RLU, an average RLU at 166.67 nM of 6770 RLU, an average RLU at 500.00 nM of 5720 RLU and a luminescence at 0.1 nM IL-8 domains of 4200. In assay [2], this substance gave a luminescence at 0.4 nM IL-8 domains of 6530, a luminescence at 0.5 nM IL-8 domains of 9790, a luminescence at 1.6 nM IL-8 domains of 12200 and a luminescence at 2.2 nM IL-8 domains of 25700. In addition, in assay [2], the luminescence at 6.25 nM IL-8 domains worked out at 28600, the luminescence at 9.9 nM IL-8 domains was 50300, the luminescence at 25 nM IL-8 domains is 50500 and the luminescence at 44 nM IL-8 domains was determined as 54100. In assay [2], this substance displayed a luminescence at 100 nM IL-8 domains of 70200 and a luminescence at 200 nM IL-8 domains of 50400. Also, in assay [3], the luminescence at 0.4 nM IL-8 domains came out at 4930, the luminescence at 1.6 nM IL-8 domains turned out to be 8730, the luminescence at 6.25 nM IL-8 domains was found to be 22300 and the luminescence at 25 nM IL-8 domains amounted to 42200. Also, in assay [3], the luminescence at 100 nM IL-8 domains was found to be 54000.
In assay [2], “IgG VH4-4 CDR3 BsaI (lacking the IL-8 insert) (antibody)” came in with an average RLU at 0.001 nM IgG of 7500 RLU, an average RLU at 0.004 nM IgG of 7390 RLU, an average RLU at 0.013 nM IgG of 7050 RLU and an average RLU at 0.040 nM IgG of 6970 RLU. In assay [2], this substance came in with an average RLU at 0.120 nM IgG of 7330 RLU, an average RLU at 0.359 nM IgG of 6690 RLU, an average RLU at 1.076 nM IgG of 7180 RLU and an average RLU at 3.228 nM IgG of 7030 RLU. In assay [2], this substance displayed an average RLU at 9.685 nM IgG of 7170 RLU, an average RLU at 29.056 nM IgG of 7100 RLU, an average RLU at 87.167 nM IgG of 7140 RLU and an average RLU at 261.500 nM IgG of 7540 RLU.
For Negative Control IgG (antibody), in assay [1], the IL-2 ELISA (A450), Donor 1, [IgG] 0.01 nM was 2 A450 and 2.15 A450; the IL-2 ELISA (A450), Donor 1, [IgG] 0.75 nM is 2.11 A450 and 2.04 A450; the IL-2 ELISA (A450), Donor 1, [IgG] 68 nM was 1.48 A450 and 1.55 A450; the IL-2 ELISA (A450), Donor 2, [IgG] 0.01 nM is 1.61 A450 and 1.48 A450. Moreover, in assay [1], the IL-2 ELISA (A450), Donor 2, [IgG] 0.75 nM was 1.56 A450 and 1.52 A450; the IL-2 ELISA (A450), Donor 2, [IgG] 68 nM was 1.5 A450 and 1.37 A450; the TNF-α ELISA (A450), Donor 1, [IgG] 0.01 nM is 1.62 A450 and 1.66 A450; the TNF-α ELISA (A450), Donor 1, [IgG] 0.75 nM was 1.69 A450 and 1.65 A450. In addition, in assay [1], the TNF-α ELISA (A450), Donor 1, [IgG] 68 nM was 1.02 A450 and 1.13 A450; the TNF-α ELISA (A450), Donor 2, [IgG] 0.01 nM was 2.07 A450 and 1.77 A450; the TNF-α ELISA (A450), Donor 2, [IgG] 0.75 nM was 2.04 A450 and 1.85 A450; the TNF-α ELISA (A450), Donor 2, [IgG] 68 nM is 1.88 A450 and 1.54 A450.

For the origin of these results see patent US20160159928A1.
